Data on eleven substances can be found in US20230135471A1, “UBIQUITIN VARIANTS WITH IMPROVED AFFINITY FOR 53BP1” (Integrated DNA Technologies, Inc., priority 2021, published 2023).

For the assay, the target named is 53BP1 fragment (a.a. 1221-1718) fused to an adenylate cyclase fragment (two-hybrid) (UniProt Q12888). Briefly: cell-based or functional assay.
For “i53 + E16N two-hybrid fusion (designed binder)”, the Experiment 1 Average Enrichment was found to be 0.11 log2, the Experiment 1 Rep 1 Enrichment was -0.32 log2, the Experiment 1 Rep 2 Enrichment came to 0.54 log2 and the Experiment 2 Average Enrichment came out at 0.26 log2. This substance displayed an Experiment 2 Rep 1 Enrichment of 0.34 log2 and an Experiment 2 Rep 2 Enrichment of 0.18 log2.

The substance “i53 + P38F two-hybrid fusion (designed binder)” yielded an Experiment 1 Average Enrichment of 0.67 log2, an Experiment 1 Rep 1 Enrichment of 0.91 log2, an Experiment 1 Rep 2 Enrichment of 0.43 log2 and an Experiment 2 Average Enrichment of 0.81 log2. The Experiment 2 Rep 1 Enrichment worked out at 0.48 log2 and the Experiment 2 Rep 2 Enrichment was 1.13 log2.

Substance “i53 + S49V two-hybrid fusion (designed binder)” showed an Experiment 1 Average Enrichment of 0.52 log2, an Experiment 1 Rep 1 Enrichment of 0.8 log2, an Experiment 1 Rep 2 Enrichment of 0.23 log2 and an Experiment 2 Average Enrichment of 0.49 log2. The substance further returned an Experiment 2 Rep 1 Enrichment of 0.52 log2 and an Experiment 2 Rep 2 Enrichment of 0.45 log2.

Consider “i53 + M1S two-hybrid fusion (designed binder)”, for which the Experiment 1 Average Enrichment was determined as 0.38 log2, the Experiment 1 Rep 1 Enrichment came to 0.55 log2, the Experiment 1 Rep 2 Enrichment worked out at 0.21 log2 and the Experiment 2 Average Enrichment is 0.34 log2. The substance further displayed an Experiment 2 Rep 1 Enrichment of 0.27 log2 and an Experiment 2 Rep 2 Enrichment of 0.41 log2.

For the substance “i53 + M1I two-hybrid fusion (designed binder)”, the Experiment 1 Average Enrichment stood at 0.06 log2, the Experiment 1 Rep 1 Enrichment was 0.11 log2, the Experiment 1 Rep 2 Enrichment stood at 0.01 log2 and the Experiment 2 Average Enrichment was 0 log2. In addition, the Experiment 2 Rep 1 Enrichment was -0.18 log2 and the Experiment 2 Rep 2 Enrichment was 0.19 log2.

In turn, “i53 + K33F two-hybrid fusion (designed binder)” showed an Experiment 1 Average Enrichment of 1.77 log2, an Experiment 1 Rep 1 Enrichment of 1.91 log2, an Experiment 1 Rep 2 Enrichment of 1.62 log2 and an Experiment 2 Average Enrichment of 1.02 log2. In addition, the Experiment 2 Rep 1 Enrichment is 1.16 log2 and the Experiment 2 Rep 2 Enrichment worked out at 0.87 log2.

Regarding “i53 + Q31H two-hybrid fusion (designed binder)”, the Experiment 1 Average Enrichment came to 0.19 log2, the Experiment 1 Rep 1 Enrichment came out at 0.66 log2, the Experiment 1 Rep 2 Enrichment is -0.29 log2 and the Experiment 2 Average Enrichment amounted to 0.11 log2. Also, the Experiment 2 Rep 1 Enrichment was 0.13 log2 and the Experiment 2 Rep 2 Enrichment was 0.09 log2.

On to “i53 + T7V two-hybrid fusion (designed binder)”, for which the Experiment 1 Average Enrichment is 0.33 log2, the Experiment 1 Rep 1 Enrichment was 0.24 log2, the Experiment 1 Rep 2 Enrichment worked out at 0.42 log2 and the Experiment 2 Average Enrichment came out at 0.02 log2. The Experiment 2 Rep 1 Enrichment is -0.04 log2 and the Experiment 2 Rep 2 Enrichment was found to be 0.09 log2.

Regarding “i53 + A28Q two-hybrid fusion (designed binder)”, the Experiment 1 Average Enrichment came to 0.44 log2, the Experiment 1 Rep 1 Enrichment was found to be 0.47 log2, the Experiment 1 Rep 2 Enrichment amounted to 0.42 log2 and the Experiment 2 Average Enrichment was found to be 0.14 log2. Moreover, the Experiment 2 Rep 1 Enrichment worked out at 0.59 log2 and the Experiment 2 Rep 2 Enrichment is -0.31 log2.

Take “i53 + E18C two-hybrid fusion (designed binder)”: the Experiment 1 Average Enrichment is 0.23 log2, the Experiment 1 Rep 1 Enrichment is -0.06 log2, the Experiment 1 Rep 2 Enrichment is 0.52 log2 and the Experiment 2 Average Enrichment is -0.34 log2. Besides, the Experiment 2 Rep 1 Enrichment was -0.82 log2 and the Experiment 2 Rep 2 Enrichment stood at 0.14 log2.

In the case of “i53 + S20N two-hybrid fusion (designed binder)”, the Experiment 1 Average Enrichment is 0.31 log2, the Experiment 1 Rep 1 Enrichment is 0 log2, the Experiment 1 Rep 2 Enrichment was 0.61 log2 and the Experiment 2 Average Enrichment is -0.25 log2. The Experiment 2 Rep 1 Enrichment is 0.12 log2 and the Experiment 2 Rep 2 Enrichment was -0.61 log2.
